± gives the half width of the 95% confidence interval.
Legend:
[1] = folding stability dG unfold from chymotrypsin proteolysis; higher = more stable
Summary of the method: (§1)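 Unfolding free energy was derived, per protease or combined, against a sequence-predicted unfolded-state K50 and a shared folded-state K50, starting from K50 inferred by Bayesian fitting of sequencing counts. Digestion with trypsin and chymotrypsin was carried out on designed mini-proteins under 80 residues without cysteine in a PA-tagged cDNA display construct. Only designs with AlphaFold2 dimer inter-PAE above 15 were kept.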

[2] = folding stability dG unfold (combined trypsin and chymotrypsin); higher = more stable
Summary of the method: as §1

[3] = folding stability dG unfold from trypsin proteolysis; higher = more stable
Summary of the method: as §1

| Sequence | folding stability dG unfold [1] [kcal/mol] | folding stability dG unfold [2] [kcal/mol] | folding stability dG unfold [3] [kcal/mol] |
| --- | --- | --- | --- |
| MKTITITVTDAPPGTVTIRVEIEREDGSTIEIEKEITVKPGDTITITLKEDEPYKIKKIEIYHNGKKIEITS [r1_70_TrROS_Hall] | 3.81 ± 0.1 | 3.76 ± 0.33 | 2.58 ± 0.15 |
| MKVVFTEEELPDAKVRKVFDPETGTITETVTYPSTSYTVTSTATITSFDPETGKVTITTTVSAPPEAGIPAS [r1_234_JUSTAS] | 1.31 ± 0.057 | 1.63 ± 0.13 | 1.87 ± 0.05 |
| MKYTLTLTDPTTPTTSTLTVPNDPEKALALLREAKAANPNLTATLTGVTSEEIVEAAKKAGLKDIKPKTAAS [r1_114_JUSTAS] | 0.301 ± 0.27 | 0.316 ± 0.27 | 0.15 ± 0.13 |
| MPAISIEEIIKLAKEAGKPAPPTVIVFNYKFGNTTRTLPVPLSEPVSLAEVEAAIKAADPNVTEITLTFVPS [r1_135_JUSTAS] | 1.36 ± 0.12 | 1.07 ± 0.16 | 0.551 ± 0.088 |
| MRFEFPLEDGGRVEVEMRPLPDGPVVLDVKITLPNGEEITIPFVFPREEFPDMDMEEIARRVVEEAIRLAKS [r1_92_TrMRF] | 5.035 ± 0.038 | 4.77 ± 0.058 | 3.463 ± 0.033 |
| MRITLELEDGTRVEIEFERKEDGTLVVRIKVTRKDGKTVEIEVVVRSKDGKITPEELERALREALEELLKKS [r1_124_TrROS_Hall] | 4.06 ± 0.33 | 4.21 ± 0.38 | 4.19 ± 0.24 |
| MRLRLTFRLPDGTEFRVERVEVLRVEPRGDRVVIPVRAYFTPEERRRLEELIPGLRDRPPLVVEVEIVLTGS [r1_35_TrMRF] | 4.38 ± 0.055 | 3.96 ± 0.072 | 3.05 ± 0.083 |
| MRRFEFPETGLVVPVVPSPDGRYRVRIYRPGGELVLEVELPDLPIPEGSDAEIRIPLKDLPPDLVTFVEPES [r1_263_TrMRF] | 1.46 ± 0.09 | 1.21 ± 0.11 | 0.819 ± 0.054 |
| MSEEERKKAAEERSKPPPVEIKVEVEVVKNEDGEEYLRVRVTVVDPETGEVIEEREFVVRREDLEELLKALS [r1_415_TrROS_Hall] | 3.57 ± 0.15 | 3.45 ± 0.27 | 3.7 ± 0.16 |
| MSEKTFVVEVKVESPEEAEELIEKLKEKLSGEKYEVKIEKVEVSPDGTVKVHITFKPGVPEEFIKKALEEES [r1_485_TrMRF] | 2.97 ± 0.086 | 2.7 ± 0.11 | 2.28 ± 0.13 |
| MTPDDMKDPNGMPPEDMWMVEIYVPRRDPEDGGPKWKPVGTIFIPPGMDPEELNEIIEELPGLDLIEIYPMS [r1_132_TrROS] | 1.42 ± 0.043 | 1.33 ± 0.14 | 1.03 ± 0.089 |
| MVITPEEVAEMLGVSPEELAALPLEELAQRILEVLPAGVATSVTVERDPARGTTTITVTLSDGKNIDVTLES [r1_340_JUSTAS] | 4.61 ± 0.47 | > 6 | 4.41 ± 0.33 |
| NIRITDIEMYPFPNNNQPQMEFTLEWPNGPRRTVEFELPGQEMEVYVDPKKGEIWFYFPNNGMFMKITIEPS [r1_125_TrROS] | 2.97 ± 0.1 | 2.63 ± 0.35 | 1.37 ± 0.068 |
| NKAQKLARSLARKFMRPHGYPMEIDPENNSIRFPNGEPIMEIPIDIVLLDDDGKIVEEINIPIRIRMRPPKS [r1_318_TrROS] | 0.782 ± 0.27 | 0.762 ± 0.23 | 0.695 ± 0.16 |
| PDNEPPQWYRVWIPIDPEDGKIEVKPGGSTMTIDLPDGRPIEFYVPQGMSPSDIKNWAKGIAKELAEELKNS [r1_25_TrROS] | 1.58 ± 0.18 | 1.52 ± 0.2 | 1.54 ± 0.076 |
| PFDIRINVEYERDPDNGKEYIEVSIMVWDGNPEQARDIAKEILEEHFGWKIKDVKVERFPDMYMITFKIRLS [r1_337_TrROS] | 4.18 ± 0.082 | 3.78 ± 0.32 | 3.46 ± 0.12 |
| PKWYEMNITINLPPDDPQKVKELKDALKKRNPDYKVKDIQFNPDDGQITINVWMPPQDQNRFQKAIKELLGS [r1_443_TrROS] | 2.31 ± 0.025 | 2.12 ± 0.084 | 1.86 ± 0.062 |
| PMIAPARLPDGSQTVSIFNANGELLVEAVVENDPELIEEAIEKLFEALPNIKPEELHVSVSDPETGESREIS [r1_55_TrMRF] | 0.345 ± 0.17 | 0.671 ± 0.19 | 1.05 ± 0.049 |
| QRVLPFKNPDGDYWVMIMNPNGDPLVEHRIPNDPEQMEKAIHKLMEQLPNFDPEDLRIAVMNPKNGESQEIS [r1_55_TrROS] | 0.868 ± 0.12 | 0.61 ± 0.13 | 0.222 ± 0.16 |
| SAAEPPPVYLVRITVKVPPGVKPLPPGAVVTYDPATGTLTVYVLMTADEIDALAAAPGVEITDIEVIKLDSA [r9_827_TrROS_Hall] | 4.94 ± 0.28 | 4.59 ± 0.24 | 3.16 ± 0.22 |
| SAAKITEVDVEVGGDTITTTFRLEIDGKPYLAVTRLEPLTDPDGNPRFIAVTELYDEDGNLVATLPSDLSAG [r14_465_TrMRF] | 2.325 ± 0.018 | 2.06 ± 0.059 | 1.59 ± 0.032 |
| SAANTEEITITVPLTDPETGEERTVTIPVKYVNTNKPYKTPNGSTKTIPVPKSTVIKEAEEEAKKIFESSSA [r9_698_JUSTAS] | 0.213 ± 0.3 | -0.369 ± 0.56 | -0.381 ± 0.95 |
| SAAPDEVVTLEFTVPVVTTFEPGAPYVAPARLTVTFHPPDRVEIRLVSPDGRLVATRTVPPSVLLSEVISAG [r14_559_TrMRF] | 2.03 ± 0.041 | 1.88 ± 0.081 | 1.62 ± 0.032 |
| SAAPVRVEVEYDPERGVLRVRLYIPATSPEEARELVERFFAALGAEARITENPETGTFVVEVDIRLPPASAG [r14_424_TrMRF] | 5.15 ± 0.056 | 4.92 ± 0.074 | 4.09 ± 0.09 |
| SAARKIAKKLKEAFPNFPIKDIEITEYEPNPNGRPYMNISIQFPNGGKMEIQFDDPEHPEIREAIREIMSAG [r14_143_TrROS] | 1.69 ± 0.086 | 1.49 ± 0.19 | 1.59 ± 0.11 |
| SAATSSTSISIPASTTSLEDVRATLAALGYPPERIVALEVVKVEPGSTKITVTLERPDGTRRTVTVTSASAG [r14_30_JUSTAS] | 2.388 ± 0.011 | 2.76 ± 0.058 | 3.14 ± 0.054 |
| SADEALRRLLENMTPEELAALLAPAVPGPPVEVLVVPREVLPEVLRRLREEFDVEFEEEGDFVRIVVRGSAG [r14_7_TrMRF] | 2.915 ± 0.016 | 2.73 ± 0.04 | 2.28 ± 0.029 |

From the supplement of paper PMC12764529
